Laboratory results as given in the supplement of paper PMC10567573.

B1: EHMT1 (parent)
chain: SARQGELQKVLLMLVDGIDPNFKM
B2: FBXO34 (parent)
chain: ASSVESTLPVLEASSWKKQVSHDF

Variants of: B1
Assay: protein stability index of a GFP-peptide fusion (GPS, HEK-293T) (PSI 1-6); higher = more stable
Conditions: c terminus: a fixed tail appended
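Also: lentivirally expressed fusions sorted by FACS into six bins by GFP to DsRed ratio, PSI derived from sequencing read proportions per bin multiplied by bin number.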

Compared with A2D, A2E is higher in protein stability index: 1.61 for the first, 1.86 for the second.

First: A2L
Second: A2H
The protein stability index of the first is higher: 3.91 for the first, 2.27 for the second.

First: A2G
Second: A2F
The protein stability index of the first is lower: 1.02 for the first, 2.81 for the second.

Compared with A2M, A2N is higher in protein stability index: 2.95 for the first, 3.47 for the second.

First: A2I
Second: A2K
The protein stability index of the first is higher: 2.21 for the first, 1.22 for the second.

Going from A2C to S1K, the protein stability index falls from 3.59 to 2.31.

Going from S1P to S1F, the protein stability index rises from 1.83 to 1.97.

First: S1E
Second: S1L
The protein stability index of the first is higher: 1.66 for the first, 1.03 for the second.

First: S1G
Second: S1R
The protein stability index of the first is lower: 2.05 for the first, 2.2 for the second.

Compared with S1T, S1W is higher in protein stability index: 2.12 for the first, 2.93 for the second.

First: S1Y
Second: S1D
The protein stability index of the first is higher: 1.45 for the first, 1.18 for the second.

Compared with S1C, S1Q is lower in protein stability index: 2.34 for the first, 2.03 for the second.

Compared with S1N, S1M is lower in protein stability index: 2.67 for the first, 1.42 for the second.

Compared with S1I, S1H is higher in protein stability index: 1.39 for the first, 2.42 for the second.

Variants of: B2
Assay: as above
Conditions: c terminus: a fixed tail appended

K17L and K17F are the same in protein stability index: 2.85 for the first, 2.85 for the second.

First: K17P
Second: K17N
The protein stability index of the first is higher: 3.95 for the first, 3.75 for the second.

First: K17G
Second: K17T
The protein stability index of the first is higher: 2.98 for the first, 1.61 for the second.

First: K17W
Second: K17H
The protein stability index of the first is lower: 2.02 for the first, 3.17 for the second.

Compared with K17S, K17I is lower in protein stability index: 2.38 for the first, 1.59 for the second.

Going from K17M to K17Y, the protein stability index falls from 2.58 to 2.38.

Going from K17Q to H22S, the protein stability index rises from 1.52 to 2.79.

First: H22I
Second: H22T
The protein stability index of the first is lower: 2.84 for the first, 3.19 for the second.

Compared with H22D, H22Q is lower in protein stability index: 3.65 for the first, 2.58 for the second.

Compared with H22N, H22C is higher in protein stability index: 2.54 for the first, 2.94 for the second.

Going from H22W to H22Y, the protein stability index rises from 2.18 to 3.01.

Compared with H22L, H22R is lower in protein stability index: 3.36 for the first, 2.09 for the second.

Going from H22V to H22K, the protein stability index rises from 2.83 to 3.31.

Compared with H22P, H22E is lower in protein stability index: 4.1 for the first, 2.69 for the second.

Going from H22G to H22M, the protein stability index falls from 4.47 to 2.23.

Compared with H22F, D23R is higher in protein stability index: 2.73 for the first, 3.76 for the second.

First: D23I
Second: D23G
The protein stability index of the first is lower: 2.07 for the first, 3.06 for the second.

First: D23Q
Second: D23T
The protein stability index of the first is lower: 2.93 for the first, 3.26 for the second.

Compared with D23H, D23C is lower in protein stability index: 3.27 for the first, 2.22 for the second.

First: D23Y
Second: D23S
The protein stability index of the first is lower: 2.18 for the first, 3.14 for the second.

Compared with D23W, D23L is higher in protein stability index: 2.61 for the first, 3.27 for the second.

Compared with D23E, D23P is higher in protein stability index: 1.77 for the first, 2.91 for the second.

First: D23F
Second: D23A
The protein stability index of the first is lower: 3.22 for the first, 3.54 for the second.

Going from D23M to D23K, the protein stability index rises from 2.96 to 3.54.

First: V20Y
Second: V20P
The protein stability index of the first is lower: 3.5 for the first, 4.04 for the second.

First: V20T
Second: V20A
The protein stability index of the first is higher: 4.29 for the first, 3.91 for the second.

Compared with V20R, V20G is lower in protein stability index: 4.22 for the first, 4.09 for the second.

Compared with V20F, V20L is lower in protein stability index: 3.72 for the first, 3.55 for the second.

First: V20E
Second: V20D
The protein stability index of the first is higher: 4.85 for the first, 4.84 for the second.

First: V20C
Second: V20H
The protein stability index of the first is lower: 3.44 for the first, 4.6 for the second.

Going from V20M to V20I, the protein stability index falls from 4.34 to 3.69.

First: V20W
Second: V20N
The protein stability index of the first is lower: 2.47 for the first, 4.13 for the second.

First: V20K
Second: V20Q
The protein stability index of the first is higher: 4.3 for the first, 4.01 for the second.

Compared with Q19D, Q19A is lower in protein stability index: 4.28 for the first, 2.61 for the second.

Going from Q19F to Q19G, the protein stability index rises from 2.82 to 4.14.

Compared with Q19R, Q19E is higher in protein stability index: 1.95 for the first, 4.58 for the second.

Going from Q19P to Q19S, the protein stability index falls from 4.53 to 4.08.

First: Q19K
Second: Q19M
The protein stability index of the first is lower: 1.89 for the first, 2.27 for the second.

Going from Q19W to Q19H, the protein stability index rises from 2.59 to 4.77.

Compared with Q19C, Q19Y is lower in protein stability index: 2.92 for the first, 2.01 for the second.

Compared with Q19L, Q19I is lower in protein stability index: 2.57 for the first, 2.45 for the second.

Going from Q19T to Q19N, the protein stability index rises from 3.3 to 3.97.

Compared with K18E, K18A is higher in protein stability index: 1.38 for the first, 2.21 for the second.

Compared with K18H, K18Q is higher in protein stability index: 2.39 for the first, 2.69 for the second.

First: K18I
Second: K18Y
The protein stability index of the first is lower: 2.37 for the first, 2.44 for the second.

Compared with K18T, K18N is lower in protein stability index: 2.95 for the first, 2.94 for the second.

Going from K18M to K18V, the protein stability index rises from 1.5 to 2.53.

Compared with K18F, K18G is higher in protein stability index: 1.8 for the first, 3.49 for the second.

First: K18S
Second: K18D
The protein stability index of the first is higher: 3.72 for the first, 1.88 for the second.

First: K18P
Second: K18C
The protein stability index of the first is higher: 2.99 for the first, 2.11 for the second.

Compared with K18L, K18W is lower in protein stability index: 2.83 for the first, 2.58 for the second.

Going from K18R to F24T, the protein stability index rises from 3.15 to 3.77.

Compared with F24G, F24S is higher in protein stability index: 2.98 for the first, 4.33 for the second.

First: F24V
Second: F24P
The protein stability index of the first is lower: 3.83 for the first, 4.26 for the second.

Compared with F24H, F24C is lower in protein stability index: 3.98 for the first, 3.49 for the second.

First: F24A
Second: F24I
The protein stability index of the first is higher: 3.78 for the first, 2.19 for the second.

Going from F24M to F24R, the protein stability index rises from 3 to 4.53.

First: F24W
Second: F24Y
The protein stability index of the first is lower: 2.45 for the first, 3 for the second.

F24N and F24Q are the same in protein stability index: 4.25 for the first, 4.25 for the second.

First: F24L
Second: F24K
The protein stability index of the first is lower: 2.31 for the first, 4.79 for the second.

First: S21M
Second: S21K
The protein stability index of the first is lower: 3 for the first, 3.26 for the second.

Going from S21G to S21D, the protein stability index rises from 2.79 to 4.89.

Going from S21F to S21N, the protein stability index rises from 2.89 to 3.64.

First: S21Y
Second: S21L
The protein stability index of the first is higher: 2.97 for the first, 2.44 for the second.

First: S21R
Second: S21I
The protein stability index of the first is higher: 3.79 for the first, 2.64 for the second.

Going from S21W to S21V, the protein stability index rises from 2.3 to 3.65.

Going from S21E to S21Q, the protein stability index rises from 2.76 to 3.08.

Going from S21A to S21C, the protein stability index falls from 3.31 to 2.72.

Compared with S21T, S21P is higher in protein stability index: 3.61 for the first, 3.87 for the second.

S21H gave a protein stability index of 3.58.
